Ends that are not written are not given here.

The chains are these.
T1: MBP-fused CAND1 (human, UniProt Q86VP6 1-1230)
T1 construct: Cullin-associated and neddylation-dissociated 1 (CAND1), human; cDNA bought from the Kazusa DNA Research Institute, in pMAL-C2; also called MBP-CAND1; source: E. coli Rosetta-Gami, purified (amylose resin, eluted with maltose)
T1 sequence (looked up): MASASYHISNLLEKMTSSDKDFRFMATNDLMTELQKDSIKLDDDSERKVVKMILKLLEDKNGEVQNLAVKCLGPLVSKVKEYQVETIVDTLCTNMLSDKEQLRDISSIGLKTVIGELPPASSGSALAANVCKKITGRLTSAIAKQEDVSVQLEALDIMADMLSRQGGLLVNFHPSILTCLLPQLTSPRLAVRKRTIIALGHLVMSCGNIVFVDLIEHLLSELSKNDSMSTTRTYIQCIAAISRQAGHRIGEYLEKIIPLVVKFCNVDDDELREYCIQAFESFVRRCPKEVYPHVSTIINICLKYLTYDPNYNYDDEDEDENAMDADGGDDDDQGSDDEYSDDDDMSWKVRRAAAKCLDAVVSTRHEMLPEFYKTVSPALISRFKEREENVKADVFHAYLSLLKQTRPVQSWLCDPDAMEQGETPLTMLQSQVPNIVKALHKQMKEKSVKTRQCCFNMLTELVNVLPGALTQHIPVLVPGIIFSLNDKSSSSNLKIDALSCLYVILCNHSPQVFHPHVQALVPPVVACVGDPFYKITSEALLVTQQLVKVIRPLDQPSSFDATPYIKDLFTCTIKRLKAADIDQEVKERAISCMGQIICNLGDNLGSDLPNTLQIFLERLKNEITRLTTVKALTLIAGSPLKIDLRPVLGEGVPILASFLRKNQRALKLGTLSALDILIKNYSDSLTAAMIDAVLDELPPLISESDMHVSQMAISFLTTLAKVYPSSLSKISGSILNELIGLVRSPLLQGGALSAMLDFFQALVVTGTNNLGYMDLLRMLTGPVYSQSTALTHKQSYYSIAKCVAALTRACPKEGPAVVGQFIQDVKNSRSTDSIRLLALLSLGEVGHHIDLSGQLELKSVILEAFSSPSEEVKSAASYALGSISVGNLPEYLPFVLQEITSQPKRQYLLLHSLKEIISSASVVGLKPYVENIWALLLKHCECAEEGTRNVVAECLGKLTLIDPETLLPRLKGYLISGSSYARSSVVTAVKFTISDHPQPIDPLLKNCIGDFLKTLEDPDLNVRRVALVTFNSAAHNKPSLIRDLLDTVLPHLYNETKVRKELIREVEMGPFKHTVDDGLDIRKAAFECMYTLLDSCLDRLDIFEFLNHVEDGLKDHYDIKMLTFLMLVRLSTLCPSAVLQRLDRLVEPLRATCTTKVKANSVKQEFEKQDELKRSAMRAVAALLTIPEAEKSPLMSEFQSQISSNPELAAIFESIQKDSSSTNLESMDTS

B1: GST-Lnp Ub (N-terminal ubiquitin ligase domain of Lnp) (domain or fragment, human, UniProt Q9C0E8 1-45, looked up)
chain: {GST}-MGGLFSRWRTKPSTVEVLESIDKEIQALEEFREKNQRLQKLWVGR
notes: lunapark (Lnp), human, N-terminal cytoplasmic domain (1–45 aa, Ub), in pGEX-6P-1; source: E. coli BL21 (DE3), purified (glutathione Sepharose, eluted with glutathione)
B2: His-Lnp ΔZn + LNPARK (Lnp lacking the zinc finger motif and the following LNPARK amino acids) (natural protein, human, UniProt Q9C0E8 1-428, looked up)
chain: MGGLFSRWRTKPSTVEVLESIDKEIQALEEFREKNQRLQKLWVGRLILYSSVLYLFTCLIVYLWYLPDEFTARLAMTLPFFAFPLIIWSIRTVIIFFFSKRTERNNEALDDLKSQRKKILEEVMEKETYKTAKLILERFDPDSKKAKECEPPSAGAAVTARPGQEIRQRTAAQRNLSPTPASPNQGPPPQVPVSPGPPKDSSAPGGPPERTVTPALSSNVLPRHLGSPATSVPGMGLHPPGPPLARPILPRERGALDRIVEYLVGDGPQNRYALTRPQAPRLPEFSFEKRQVVEGSSSVGPLPSGSVLSSDNQFNEESLEHDVLDDNTEQTDDKIPATEQTNQVIEKASDSEEPEEKQETENEEASVIETNSTVPGADSIPDPELSGESLTAE
notes: lunapark (Lnp), human, lacking the zinc finger motif and the following LNPARK amino acids (275–309 aa), in pET28a(+); source: E. coli BL21 (DE3), purified (Ni-agarose)
B3: hexa histidine-tagged Lnp, wild type (natural protein, human, UniProt Q9C0E8 1-428, looked up)
chain: MGGLFSRWRTKPSTVEVLESIDKEIQALEEFREKNQRLQKLWVGRLILYSSVLYLFTCLIVYLWYLPDEFTARLAMTLPFFAFPLIIWSIRTVIIFFFSKRTERNNEALDDLKSQRKKILEEVMEKETYKTAKLILERFDPDSKKAKECEPPSAGAAVTARPGQEIRQRTAAQRNLSPTPASPNQGPPPQVPVSPGPPKDSSAPGGPPERTVTPALSSNVLPRHLGSPATSVPGMGLHPPGPPLARPILPRERGALDRIVEYLVGDGPQNRYALICQQCFSHNGMALKEEFEYIAFRCAYCFFLNPARKTRPQAPRLPEFSFEKRQVVEGSSSVGPLPSGSVLSSDNQFNEESLEHDVLDDNTEQTDDKIPATEQTNQVIEKASDSEEPEEKQETENEEASVIETNSTVPGADSIPDPELSGESLTAE
notes: lunapark (Lnp), human; cDNA amplified from a human cDNA library, in pET28a(+); also called His-Lnp; His-Lnp WT; source: E. coli BL21 (DE3), purified (Ni-agarose)
B4: GST-fused Lnp (lunapark) (natural protein, human, UniProt Q9C0E8 1-428, looked up)
chain: B3 chain
notes: lunapark (Lnp), human; cDNA amplified from a human cDNA library, in pGEX-6P-1; the same cDNA was subcloned into all vectors; also called GST-Lnp; GST-Lnp WT; source: E. coli BL21 (DE3), purified (glutathione Sepharose)
B5: His-Lnp ΔTM (transmembrane domains replaced by a (GGS)3 linker) (natural protein, human)
chain: MGGLFSRWRTKPSTVEVLESIDKEIQALEEFREKNQRLQKLWVGGGSGGSGGSRTERNNEALDDLKSQRKKILEEVMEKETYKTAKLILERFDPDSKKAKECEPPSAGAAVTARPGQEIRQRTAAQRNLSPTPASPNQGPPPQVPVSPGPPKDSSAPGGPPERTVTPALSSNVLPRHLGSPATSVPGMGLHPPGPPLARPILPRERGALDRIVEYLVGDGPQNRYALICQQCFSHNGMALKEEFEYIAFRCAYCFFLNPARKTRPQAPRLPEFSFEKRQVVEGSSSVGPLPSGSVLSSDNQFNEESLEHDVLDDNTEQTDDKIPATEQTNQVIEKASDSEEPEEKQETENEEASVIETNSTVPGADSIPDPELSGESLTAE
notes: lunapark (Lnp), human, the stretch before the transmembrane domains (45–100 aa); polypeptide linker (GGS)3 in place of residues 45–100; lunapark (Lnp), human, the stretch after the transmembrane domains (45–100 aa); source: E. coli BL21 (DE3), purified (Ni-agarose)
B6: His-Lnp ΔUb (Lnp lacking the N-terminal ubiquitin ligase domain) (domain or fragment, human, UniProt Q9C0E8 46-428, looked up)
chain: LILYSSVLYLFTCLIVYLWYLPDEFTARLAMTLPFFAFPLIIWSIRTVIIFFFSKRTERNNEALDDLKSQRKKILEEVMEKETYKTAKLILERFDPDSKKAKECEPPSAGAAVTARPGQEIRQRTAAQRNLSPTPASPNQGPPPQVPVSPGPPKDSSAPGGPPERTVTPALSSNVLPRHLGSPATSVPGMGLHPPGPPLARPILPRERGALDRIVEYLVGDGPQNRYALICQQCFSHNGMALKEEFEYIAFRCAYCFFLNPARKTRPQAPRLPEFSFEKRQVVEGSSSVGPLPSGSVLSSDNQFNEESLEHDVLDDNTEQTDDKIPATEQTNQVIEKASDSEEPEEKQETENEEASVIETNSTVPGADSIPDPELSGESLTAE
notes: lunapark (Lnp), human, lacking Lnp Ub (the N-terminal cytoplasmic domain, 1–45 aa), in pET28a(+); The start 46 follows from the printed limits of Lnp Ub (1–45 aa); source: E. coli BL21 (DE3), purified (Ni-agarose)
B7: His-Lnp ΔCC (Lnp lacking the coiled-coil domain) (natural protein, human, UniProt Q9C0E8 1-428, looked up)
chain: MGGLFSRWRTKPSTVEVLESIDKEIQALEEFREKNQRLQKLWVGRLILYSSVLYLFTCLIVYLWYLPDEFTARLAMTLPFFAFPLIIWSIRTVIIFFFSKKAKECEPPSAGAAVTARPGQEIRQRTAAQRNLSPTPASPNQGPPPQVPVSPGPPKDSSAPGGPPERTVTPALSSNVLPRHLGSPATSVPGMGLHPPGPPLARPILPRERGALDRIVEYLVGDGPQNRYALICQQCFSHNGMALKEEFEYIAFRCAYCFFLNPARKTRPQAPRLPEFSFEKRQVVEGSSSVGPLPSGSVLSSDNQFNEESLEHDVLDDNTEQTDDKIPATEQTNQVIEKASDSEEPEEKQETENEEASVIETNSTVPGADSIPDPELSGESLTAE
notes: lunapark (Lnp), human, lacking the coiled-coil domain (100–143 aa), in pET28a(+); source: E. coli BL21 (DE3), purified (Ni-agarose)

In series [1] the target is B6. The series is described as follows: pull-down; His-Lnp ΔUb (0.6 nmol) immobilised on Ni-agarose, incubated with GST-Lnp Ub (3 nmol) or GST alone, or with GST-Lnp Ub (1.2 nmol) and MBP-CAND1 or MBP alone (6 nmol), in buffer G with 20 mM imidazole and 1 mM DTT, 4 °C 2 h; CBB staining. The conditions noted are these: both partners purified.
For series [2], the target named is T1, MBP-fused CAND1. The series is described as follows: pull-down; His-Lnp WT or deletion mutants (0.5 nmol) immobilised on Ni-agarose, incubated with MBP-CAND1 or MBP alone (3 nmol) in buffer G with 10 mM imidazole, 4 °C 2 h; CBB staining. The following applies: both partners purified.
In series [3] the target is T1, MBP-fused CAND1. The series is described as follows: sucrose density gradient ultracentrifugation; His-Lnp (0.6 nmol) alone or incubated with MBP-CAND1 (2 nmol) in buffer H (20 mM Tris-HCl pH 7.5, 150 mM NaCl, 1% Triton X-100), 10–40% (w/v) sucrose gradient, 200,000 x g, 4 °C, 20 h; 17 fractions, CBB staining. The conditions noted are these: both partners purified.
Series [4] concerns the molecule itself. The description is as above.
The target of series [5] is T1, MBP-fused CAND1. The experiment in a line: pull-down; GST-Lnp or GST-Lnp Ub (0.6 nmol) immobilised on glutathione Sepharose, incubated with MBP-CAND1 (6 nmol) in buffer A with 1% Triton X-100, 4 °C 2 h; CBB staining. The following applies: both partners purified.

With B1, the binding result in series [1] was “binds”.

As to B2, in the series with MBP-fused CAND1 [2], the binding result is reported as “binds”.

As for B3, the binding result (with MBP-fused CAND1 [3]; in series [4]) was “binds” in each case.

On to B4, for which the binding result with MBP-fused CAND1 [5] is “binds”.

For B5, the binding result in the series with MBP-fused CAND1 [2] is “binds”.

As to B6, in the series with MBP-fused CAND1 [2], the binding result is “binds”.

On to B7, for which the binding result with MBP-fused CAND1 [2] is on record as “binds”.

Values taken from PMC6739345, “CAND1 regulates lunapark for the proper tubular network of the endoplasmic reticulum” (Scientific Reports, 2019).
